Experiments:
Y177A, W151A, and F141A = experiment: ITC
[1] = target: Spindlin1_(50-262) bound to DOCpep(1-3) (UniProt Q9Y657); experiment: ITC

fold reduction of binding against wild-type Spindlin1 (Y177A, W151A, and F141A) [fold] | fold decrease of binding affinity in the presence of DOCpep(1-3) [1] [fold] | Substance
1.5 to 3 |  | DOCpep2, SPIN•DOC 228-239 peptide (from UniProt Q9BUA3 228-239)
 | 18 | histone H3 1-20 K4me3 peptide (from UniProt P68431 2-21)

— publication doi:10.1101/2021.03.07.432812
